Data: the supplement of paper PMC9732359
± gives the uncertainty stated by the source.

Experiment: protein stability index of a GFP-peptide fusion (yeast GPS) (PSI 1-4); higher = more stable; sorted into four equal gates, so the index is relative within each strain
How it was run: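 For each peptide, the protein stability index sums the read frequency in every gate after multiplying it by the gate number. Read frequencies came from plasmids that were PCR-amplified from each gate and Illumina-sequenced, with reads assigned to strains by barcodes. The gates were four equal bins of GFP/Cherry fluorescence ratio applied to mid-log yeast in leucine-free medium carrying a pooled library of tiled 17-residue yeast protein peptides fused downstream of GFP on a Cherry-expressing plasmid.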

| Sequence | protein stability index (doa10∆) | protein stability index (pdr5∆) | protein stability index (san1∆) | protein stability index (ubr1∆) |
| --- | --- | --- | --- | --- |
| SFLDRKRAKEFITTLLK [SIN4] | 2.35 ± 0.048 | 2.21 ± 0.06 | 2.21 ± 0.061 | 2.08 ± 0.042 |
| TNVQRIAAYIRRHRNPD [SMC1] | 3.1 ± 0.24 | 3.32 ± 0.22 | 3.29 ± 0.18 | 3.04 ± 0.16 |
| AQGKEFGVTKARWPAKS [RPL17A] | 3.02 ± 0.13 | 3.49 ± 0.12 | 3.26 ± 0.066 | 3.35 ± 0.097 |
| YWYFLQKLHKVKKASGE [RPL20A] | 3.1 ± 0.093 | 2.86 ± 0.068 | 3.13 ± 0.049 | 2.97 ± 0.063 |
| NRKVRAGRGFTLAEVKA [RPL13A] | 2.84 ± 0.054 | 2.97 ± 0.061 | 2.82 ± 0.043 | 2.48 ± 0.044 |
| SPIGFTNSPQISVTRQV [SMC2] | 2.92 ± 0.052 | 3.09 ± 0.047 | 2.95 ± 0.043 | 2.79 ± 0.034 |
| SRLLDILEDYCYFRDFE [ISW2] | 1.71 ± 0.088 | 1.42 ± 0.089 | 1.5 ± 0.12 | 1.21 ± 0.058 |
| KRFQVLYPCYFDINRSH [SEC65] | 2.11 ± 0.062 | 2.11 ± 0.055 | 1.88 ± 0.071 | 2.06 ± 0.039 |
| RISEKSVRKFLEIALFK [RPO31] | 1.93 ± 0.14 | 1.15 ± 0.13 |  |  |
| RATPATLTELKDALSNS [SRB2] | 3.11 ± 0.12 | 3.11 ± 0.11 | 3.15 ± 0.12 | 3.42 ± 0.1 |
| VKLWEEDPDQEECSGRR [YGL100W/SEH1] | 3.18 ± 0.084 | 3.08 ± 0.081 | 3.37 ± 0.04 | 3.37 ± 0.055 |
| RHMVDDKIHARARGPMQ [RPB2] | 3.38 ± 0.17 | 3.48 ± 0.13 | 3.27 ± 0.16 | 2.7 ± 0.16 |
| IMNELYRMKGGRVTFIP [SMC3] | 2.12 ± 0.23 |  |  | 3.66 ± 0.16 |
| DKLKVYKQAMNETSEQL [SNF5] | 3.17 ± 0.11 | 3.39 ± 0.15 | 3.13 ± 0.12 | 3.11 ± 0.11 |
| TSALSELSGLISSAKLD [QCR2] | 1.69 ± 0.1 | 2 ± 0.083 | 1.7 ± 0.13 | 1.94 ± 0.11 |
| NQSFIQQKANLLSSSNF [COR1] | 2.17 ± 0.067 | 1.91 ± 0.069 | 2.04 ± 0.083 | 1.76 ± 0.042 |
| SFVGDYMHDTELNYFVG [GRR1] | 3.1 ± 0.068 | 3.04 ± 0.09 | 3.35 ± 0.061 | 3.22 ± 0.067 |
| NTVDGDLLKLVHLSNGY [FAS1] | 2.86 ± 0.07 | 2.52 ± 0.056 | 2.31 ± 0.076 | 2.46 ± 0.064 |
| MQDPDGIDINTKIFNSV [YCG1] | 2.93 ± 0.21 | 3.04 ± 0.12 | 2.54 ± 0.17 | 2.89 ± 0.068 |
| TRKAMLDPLEVHMLDFP [PRP8] | 2.84 ± 0.061 | 2.94 ± 0.06 | 3.03 ± 0.054 | 3 ± 0.048 |
| LNVVMKNLERLRGEYND [SMC4] | 3.26 ± 0.092 | 3.49 ± 0.11 | 3.37 ± 0.068 | 3.66 ± 0.13 |
| ILKTLERSICALGEFAD [YML031W/NDC1] | 2.58 ± 0.053 | 3.04 ± 0.075 | 3.05 ± 0.065 | 2.78 ± 0.05 |
| KSGIPEFTPADPNLSFE [SSN2] | 2.96 ± 0.091 | 3.04 ± 0.055 | 2.78 ± 0.054 | 3.25 ± 0.062 |
| SPEGRLFQVEYSLEAIK [PUP2] | 2.37 ± 0.19 | 2.86 ± 0.1 | 2.75 ± 0.12 | 2.62 ± 0.067 |
| NYIENMNEMCKKINAKE [RPN8] | 2.84 ± 0.045 | 3.07 ± 0.059 | 3.12 ± 0.043 | 3 ± 0.039 |
| RLELAGQLISLLFEDLF [RET1] | 2.65 ± 0.092 | 2.9 ± 0.12 | 2.67 ± 0.082 | 2.91 ± 0.075 |
| LYGLNLTLRKAKAPSGL [FAS1] | 2.92 ± 0.089 | 2.17 ± 0.12 | 3.53 ± 0.068 | 2.42 ± 0.15 |

| Sequence | protein stability index (doa10∆) | protein stability index (pdr5∆) | protein stability index (san1∆) | protein stability index (ubr1∆) |
| --- | --- | --- | --- | --- |
| NEYPVADAVTKDLKLRR [REC8] | 3.08 ± 0.1 | 3.23 ± 0.095 | 3.28 ± 0.038 | 3.23 ± 0.041 |
| PQNTTATTGGLFGSKPQ [YGR119C/NUP57] | 3.33 ± 0.1 | 3.36 ± 0.1 | 3.32 ± 0.13 | 3.53 ± 0.17 |
| IKVDGAVGNLGNAIEVT [RPL22B] | 1.74 ± 0.12 | 2.4 ± 0.076 | 1.8 ± 0.14 | 1.58 ± 0.047 |
| YVGNKRLELAGQLISLL [RET1] | 2.84 ± 0.083 | 3.25 ± 0.092 | 2.7 ± 0.074 | 2.92 ± 0.079 |
| MAPYLPGSRASSRFIKG [RPN2] | 2.44 ± 0.059 | 2.66 ± 0.064 | 2.45 ± 0.063 | 2.53 ± 0.044 |
| IRIYFTEKDDNKTNNED [NUT1] | 2.82 ± 0.1 | 2.95 ± 0.071 | 2.84 ± 0.13 | 2.87 ± 0.074 |
| SRRLMKSLEDLSCQYDN [RPO31] | 2.04 ± 0.11 | 1.42 ± 0.17 | 1.36 ± 0.2 | 1.27 ± 0.085 |
| NTNGTNASANSTSFSFN [YOR098C/NUP1] | 2.91 ± 0.045 | 3.12 ± 0.045 | 2.99 ± 0.042 | 3.06 ± 0.031 |
| LERTAIELKTDWVRFLA [RPN1] | 1.58 ± 0.13 | 1.49 ± 0.098 | 1.55 ± 0.11 | 1.17 ± 0.067 |
| AGNIKCRNDAVNWLAYT [BRR2] | 3.13 ± 0.05 | 3.49 ± 0.039 | 3.16 ± 0.034 | 3.24 ± 0.035 |
| KVFSLDPQYLVDDLRPE [ASC1] | 2.94 ± 0.16 | 2.84 ± 0.1 | 3.04 ± 0.09 | 3.15 ± 0.078 |
| ASKSKKKFNMGKEFEAR [RPC53] | 3.33 ± 0.085 | 3.14 ± 0.12 | 3.27 ± 0.073 | 3.4 ± 0.081 |
| NLFPLKPKMLPIPSKPT [SRP68] | 2.38 ± 0.11 | 2.55 ± 0.093 | 2.43 ± 0.16 | 2.61 ± 0.081 |
| AISKKNKSLKYVIHGIE [LIN1] | 2.02 ± 0.058 | 1.84 ± 0.053 | 2.11 ± 0.084 | 1.84 ± 0.04 |
| FLTNELIRLQMEKLDAK [SWI3] | 2.97 ± 0.11 | 2.98 ± 0.085 | 3.14 ± 0.051 | 2.96 ± 0.078 |
| NLLHSYMEKGTQLDDLQ [YML103C/NUP188] | 2.63 ± 0.056 | 2.49 ± 0.053 | 2.35 ± 0.052 | 2.32 ± 0.034 |
| RLAPLIKEENDMENMAD [ARP7] | 3.75 ± 0.23 | 3.65 ± 0.15 | 2.88 ± 0.14 |  |
| EELLLKDLEIRKLEISS [GAL11] |  | 2.31 ± 0.11 | 3.18 ± 0.081 | 1.09 ± 0.12 |
| SLQDLIYKRGQAGVTKA [SMC2] | 1.58 ± 0.15 | 1.94 ± 0.094 | 1.85 ± 0.15 | 2.3 ± 0.079 |
| ECPVGEFLINEGTPINN [RPN14] | 2.99 ± 0.1 | 2.39 ± 0.069 | 2.89 ± 0.11 | 2.31 ± 0.085 |
| TENDIKALQSIGQLIGE [RPT4] | 3.21 ± 0.082 | 3.06 ± 0.095 | 2.74 ± 0.099 | 3.23 ± 0.045 |
| VFEISENNSDSNSNNNG [SWI1] | 2.89 ± 0.15 | 3.03 ± 0.11 | 3.15 ± 0.12 | 3.28 ± 0.15 |
| NLPEEERKQIHEFKLIV [GRR1] | 2.13 ± 0.29 | 3.35 ± 0.24 |  | 2.73 ± 0.13 |
| NTHWGLVCPAETPEGQA [RPB2] | 1.53 ± 0.14 | 1.49 ± 0.1 | 1.78 ± 0.15 | 1.14 ± 0.097 |
| LSPSDQFAPAFLNTPNN [SSN2] | 1.96 ± 0.069 | 2.23 ± 0.1 | 2.06 ± 0.13 | 2.44 ± 0.098 |
| DSENFSFEKLYEGMKLG [YMR129W/POM152] | 3.5 ± 0.11 | 3.48 ± 0.15 | 3.42 ± 0.098 | 3.29 ± 0.074 |
